How the values were obtained:
[1] = tested on: H69-tumor xenograft and organs; parameters: species or system mice; conditions: mouse, in vivo, iv
Protocol: Six-week-old male Balb/c nu/nu-specific and opportunistic pathogen-tree (SOPF) mice (Janvier Labs, Le Genest-Saint-Isle, France) were housed in individually ventilated cages, with 4 mice per cage. Upon arrival, mice were acclimated for 1 week, with access to food and water ad libitum. Mice were subcutaneously inoculated on the right shoulder with NCI-H69 cells (5×10^6 cells suspended in 100 μL of ⅓ Matrigel (Corning Inc., Corning, NY, USA) and ⅔ Hank's balanced salt solution (Gibco). NCI-H69 xenografts were allowed to grow for 3 weeks. Tumor sizes were 391±173 mm^3 at the start of the studies. All animal experiments were approved by the Animal Welfare Committee of the Erasmus MC and were conducted in agreement with institutional guidelines (license number: AVD101002017867).
Biodistribution studies were performed to determine tumor and organ uptake of [^212Pb]Pb-DOTAMTATE, [^212Pb]Pb-DOTAM-Amcha-TATE or [^212Pb]Pb-DOTAM-Pip-TATE. Animals (n=4 for each time point and each compound) were injected intravenously with an average of 100 kBq/0.5 nmol at t=0. At 3 selected time points (1, 4 and 24 h) p.i. blood was collected via cardiac puncture under isoflurane/O2 anesthesia, after which the mice were sacrificed. The tumor and organs of interest (prostate, pancreas, spleen, liver, GI tract (stomach, small intestine, large intestine), kidneys, lungs, heart, muscle, bone and tail) were excised, washed in PBS and blotted dry. To confirm receptor specificity of the 3 radiotracers uptake, NCI-H69-xenografted mice were co-injected with [212Pb] Pb-DOTAMTATE, [^212Pb]Pb-DOTAM-Amcha-TATE or [^212Pb]Pb-DOTAM-Pip-TATE plus an excess (25 nmol) of the respective unlabelled peptide (n=3), after which tumor and organ uptake was determined at 24 h p.i. The blood, tumor, and relevant organs were weighed and measured in a γ-counter. To determine the total injected radioactivity per animal, calibration curve with lead-212 was determined. The percentage of injected dose per gram (% ID/g) was determined for each tissue sample and corrected for both the injected volume and % ID present at the injection site (the tail). […] Pb-DOTAMTATE. In Table 3, the absorbed dose per administered activity (Gy/MBq; with RBE=5) in H69-tumor xenograft and organs for [^212Pb]Pb-DOTAM-TATE, [^212Pb]Pb-DOTAM-Amcha-TATE and [^212Pb]Pb-DOTAM-Pip-TATE is given.

in vitro = in vitro ADME; conditions: for remaining at 1 h / remaining at 4 h / remaining at 24 h: mouse, serum, Stability in mouse serum (%)
Protocol: The ^203Pb-labelled compounds (˜2 MBq) or the ^212Pb-labelled compounds (˜70 kBq) were incubated in 300 μL of phosphate buffered saline (PBS; 0.1 M, pH 7.4) or mouse serum at 37° C. Stability of the radiolabed peptides was monitored at 1, 4 and 24 h post incubation. The samples in PBS were directly analyzed by radio-HPLC without any pretreatment. However, samples in mouse serum were mixed with an equal volume of acetonitrile to precipitate the proteins. The solution was centrifuged twice for 5 min at 13,000 rpm, and the supernatant was analyzed by radio-HPLC using Method 1 for lead-203 and Method 2 for lead-212.

C[C@@H](O)[C@H](NC(=O)[C@@H]1CSSC[C@H](NC(=O)[C@@H](Cc2ccccc2)NC(=O)CN2CCN(CC(N)=O)CCN(CC(N)=O)CCN(CC(N)=O)CC2)C(=O)N[C@@H](Cc2ccc(O)cc2)C(=O)N[C@H](Cc2c[nH]c3ccccc23)C(=O)N[C@@H](CCCCN)C(=O)N[C@@H]([C@@H](C)O)C(=O)N1)C(=O)O [[^212Pb]Pb-DOTAM-TATE] [metal not drawn, reference compound]
Absorbed dose per administered activity, Kidneys [1]: 140.03 ± 17.95 Gy/MBq | Absorbed dose per administered activity, Large Intestines [1]: 1.64 ± 0.30 Gy/MBq | Absorbed dose per administered activity, Liver [1]: 6.93 ± 0.64 Gy/MBq | Absorbed dose per administered activity, Lung [1]: 2.06 ± 0.29 Gy/MBq | Absorbed dose per administered activity, Pancreas [1]: 3.65 ± 0.28 Gy/MBq | Absorbed dose per administered activity, Spleen [1]: 0.56 ± 0.14 Gy/MBq | Absorbed dose per administered activity, Stomach wall [1]: 4.42 ± 1.30 Gy/MBq | Absorbed dose per administered activity, Tumor [1]: 26.61 ± 19.27 Gy/MBq

C[C@@H](O)[C@H](NC(=O)[C@@H]1CSSC[C@H](NC(=O)[C@@H](Cc2ccccc2)NC(=O)[C@H]2CC[C@H](CNC(=O)CN3CCN(CC(N)=O)CCN(CC(N)=O)CCN(CC(N)=O)CC3)CC2)C(=O)N[C@@H](Cc2ccc(O)cc2)C(=O)N[C@H](Cc2c[nH]c3ccccc23)C(=O)N[C@@H](CCCCN)C(=O)N[C@@H]([C@@H](C)O)C(=O)N1)C(=O)O [[^203Pb]Pb-DOTAM-Amcha-TATE] [metal not drawn]
Stability in mouse serum (%) (in vitro; 1 h): 100% | Stability in mouse serum (%) (in vitro; 4 h): 100% | Stability in mouse serum (%) (in vitro; 24 h): 100%

C[C@@H](O)[C@H](NC(=O)[C@@H]1CSSC[C@H](NC(=O)[C@@H](Cc2ccccc2)NC(=O)CN2CCC(NC(=O)CN3CCN(CC(N)=O)CCN(CC(N)=O)CCN(CC(N)=O)CC3)CC2)C(=O)N[C@@H](Cc2ccc(O)cc2)C(=O)N[C@H](Cc2c[nH]c3ccccc23)C(=O)N[C@@H](CCCCN)C(=O)N[C@@H]([C@@H](C)O)C(=O)N1)C(=O)O [[^212Pb]Pb-DOTAM-Pip-TATE, metal not drawn]
remaining at 1 h (in vitro): 99% | remaining at 4 h (in vitro): 99% | remaining at 24 h (in vitro): 96%

C[C@@H](O)[C@H](NC(=O)[C@@H]1CSSC[C@H](NC(=O)[C@@H](Cc2ccccc2)NC(=O)[C@H]2CC[C@H](CNC(=O)CN3CCN(CC(N)=O)CCN(CC(N)=O)CCN(CC(N)=O)CC3)CC2)C(=O)N[C@@H](Cc2ccc(O)cc2)C(=O)N[C@H](Cc2c[nH]c3ccccc23)C(=O)N[C@@H](CCCCN)C(=O)N[C@@H]([C@@H](C)O)C(=O)N1)C(=O)O [[^212Pb]Pb-DOTAM-Amcha-TATE] [metal not drawn]
Absorbed dose per administered activity, Kidneys [1]: 121.73 ± 14.57 Gy/MBq | Absorbed dose per administered activity, Large Intestines [1]: 2.03 ± 0.26 Gy/MBq | Absorbed dose per administered activity, Liver [1]: 9.03 ± 2.24 Gy/MBq | Absorbed dose per administered activity, Lung [1]: 3.20 ± 0.40 Gy/MBq | Absorbed dose per administered activity, Pancreas [1]: 5.40 ± 0.14 Gy/MBq | Absorbed dose per administered activity, Spleen [1]: 0.73 ± 0.19 Gy/MBq | Absorbed dose per administered activity, Stomach wall [1]: 5.78 ± 0.77 Gy/MBq | Absorbed dose per administered activity, Tumor [1]: 35.49 ± 9.89 Gy/MBq

C[C@@H](O)[C@H](NC(=O)[C@@H]1CSSC[C@H](NC(=O)[C@@H](Cc2ccccc2)NC(=O)[C@H]2CC[C@H](CNC(=O)CN3CCN(CC(N)=O)CCN(CC(N)=O)CCN(CC(N)=O)CC3)CC2)C(=O)N[C@@H](Cc2ccc(O)cc2)C(=O)N[C@H](Cc2c[nH]c3ccccc23)C(=O)N[C@@H](CCCCN)C(=O)N[C@@H]([C@@H](C)O)C(=O)N1)C(=O)O [[^212Pb]Pb-DOTAM-Amcha-TATE, metal not drawn]
remaining at 1 h (in vitro): 96% | remaining at 4 h (in vitro): 96% | remaining at 24 h (in vitro): 93%

C[C@@H](O)[C@H](NC(=O)[C@@H]1CSSC[C@H](NC(=O)[C@@H](Cc2ccccc2)NC(=O)CN2CCN(CC(N)=O)CCN(CC(N)=O)CCN(CC(N)=O)CC2)C(=O)N[C@@H](Cc2ccc(O)cc2)C(=O)N[C@H](Cc2c[nH]c3ccccc23)C(=O)N[C@@H](CCCCN)C(=O)N[C@@H]([C@@H](C)O)C(=O)N1)C(=O)O [[^212Pb]Pb-DOTAM-TATE, metal not drawn, reference compound]
remaining at 1 h (in vitro): 99% | remaining at 4 h (in vitro): 99% | remaining at 24 h (in vitro): 97%

C[C@@H](O)[C@H](NC(=O)[C@@H]1CSSC[C@H](NC(=O)[C@@H](Cc2ccccc2)NC(=O)CN2CCC(NC(=O)CN3CCN(CC(N)=O)CCN(CC(N)=O)CCN(CC(N)=O)CC3)CC2)C(=O)N[C@@H](Cc2ccc(O)cc2)C(=O)N[C@H](Cc2c[nH]c3ccccc23)C(=O)N[C@@H](CCCCN)C(=O)N[C@@H]([C@@H](C)O)C(=O)N1)C(=O)O [[^203Pb]Pb-DOTAM-Pip-TATE] [metal not drawn]
Stability in mouse serum (%) (in vitro; 1 h): 97% | Stability in mouse serum (%) (in vitro; 4 h): 97% | Stability in mouse serum (%) (in vitro; 24 h): 97%

C[C@@H](O)[C@H](NC(=O)[C@@H]1CSSC[C@H](NC(=O)[C@@H](Cc2ccccc2)NC(=O)CN2CCN(CC(N)=O)CCN(CC(N)=O)CCN(CC(N)=O)CC2)C(=O)N[C@@H](Cc2ccc(O)cc2)C(=O)N[C@H](Cc2c[nH]c3ccccc23)C(=O)N[C@@H](CCCCN)C(=O)N[C@@H]([C@@H](C)O)C(=O)N1)C(=O)O [[^203Pb]Pb-DOTAM-TATE] [metal not drawn, reference compound]
Stability in mouse serum (%) (in vitro; 1 h): 99% | Stability in mouse serum (%) (in vitro; 4 h): 99% | Stability in mouse serum (%) (in vitro; 24 h): 99%

Reference: patent US20250346589A1, “RADIOISOTOPE LABELED SSTR2-AGONISTS WITH LINKERS” (Erasmus University Medical Center Rotterdam, priority 2022, published 2025)
